The subject of experiment [1] is NCI-H2170, LK-2 and MDA-MB-231 tumor cells. Briefly: In vitro cytotoxic activity test, overall statements on the tumor cells of Table 1. Type of experiment: cell-based, human. The settings on record: statement on Table 1. How it is done:
Human lung squamous carcinoma cell NCI-H2170 and LK-2, and human breast cancer cell MDA-MB-231 were selected as the cell lines for in vitro activity detection in this experiment. The expression profile of the TROP2 antigen on the surfaces of the above human tumor cells (represented by rMFI) was determined by flow cytometry (FACS). At the same time, the dose-effect profiles of Antibody Conjugate 13, DS-1062a (the control drug, prepared according to the method described in U.S. Ser. No. 11/173,213B2), the hIgG-deruxtecan conjugate and the hIgG-A-11 conjugate on cell killing were observed. The final concentrations of the antibody drug conjugates after addition were designed as a series of 9 concentrations from […] with 500 nM as the initial concentration. The changes in killing (or inhibition) over 120 hours were observed. Chemiluminescence staining (Luminescent Cell Viability Assay) was carried out, and IC50 was calculated after reading the […] data.

The test system of experiment [2] is Human lung squamous carcinoma cells NCI-H2170. The experiment is described as follows: In vivo anti-tumor experiment, subcutaneous NCI-H2170 xenograft. The conditions noted are these: single dose of 5 mg/kg intravenously on day 0, FIG. 28. Also noted: species or system female nude mice. The protocol: The efficacy of the combination of the present invention can be measured in vivo, i.e., an allograft or xenograft of cancer cells was implanted in rodents, and the tumors were treated with the combination. Test mice were treated with drugs or controls and monitored for several weeks or longer to measure the time to tumor doubling, log cell killing, and tumor inhibition.
Human lung squamous carcinoma cells NCI-H2170 (ATCC) were suspended in physiological saline. 4×10^7 cells were subcutaneously transplanted into the right flank of female nude mice, which were randomized into groups on day 6. Taking the grouping day as day 0, Antibody Conjugate 13, DS-1062a (the positive control drug) and the hIgG-A-11 conjugate as a negative control group were administered intravenously to the tail at a dose of 5 mg/kg respectively on day 0.

B1: DS-1062a (conjugate, chains of the INN, looked up)
VH: QVQLVQSGAEVKKPGASVKVSCKASGYTFTTAGMQWVRQAPGQGLEWMGWINTHSGVPKYAEDFKGRVTISADTSTSTAYLQLSSLKSEDTAVYYCARSGFGSSYWYFDVWGQGTLVTVSS
VL: DIQMTQSPSSLSASVGDRVTITCKASQDVSTAVAWYQQKPGKAPKLLIYSASYRYTGVPSRFSGSGSGTDFTLTISSLQPEDFAVYYCQQHYITPLTFGQGTKLEIK
modifications: deruxtecan payload
For B1, the “inhibition of tumor cell proliferation / in vitro anti-tumor activity” value in experiment [1] was “could inhibit tumor cell proliferation significantly”. For the same molecule, the “in vivo anti-tumor activity” value in experiment [2] is listed as “showed anti-tumor activity”.

Values taken from patent US20240245799A1, “PREPARATION METHOD FOR ANTIBODY-DRUG CONJUGATE, AND APPLICATION” (priority 2021, published 2024).
